According to US20100151566A1:

Legend:
[1] = target: Isoform 121 of human VEGF-A (Peprotech) (human) (UniProt P15692); assay: ELISA on coated antigen, 20 µg/mL; negative control
[2] = target: P6447aa-VEGF fusion protein (human (VEGF part); Neisseria meningitidis (P64K part)); assay: as above
[3] = target: Isoform 121 of human VEGF-A (Peprotech) (human) (UniProt P15692); assay: ELISA, antigen coated at 5 µg/mL, KDR-Fc 0.5 µg/mL
[4] = target: Isoform 121 of human VEGF-A (Peprotech) (human) (UniProt P15692); assay: ELISA, antigen coated at 5 µg/mL, KDR-Fc 1.0 µg/mL
[5] = target: Isoform 121 of human VEGF-A (Peprotech) (human) (UniProt P15692); assay: ELISA, antigen coated at 5 µg/mL, KDR-Fc 0.25 µg/mL
[6] = target: Isoform 121 of human VEGF-A (Peprotech) (human) (UniProt P15692); assay: ELISA, antigen coated at 5 µg/mL, KDR-Fc 0.125 µg/mL

Sequence of soluble human receptor KDR-Fc (Sigma) (P35968 20-764 limits assumed): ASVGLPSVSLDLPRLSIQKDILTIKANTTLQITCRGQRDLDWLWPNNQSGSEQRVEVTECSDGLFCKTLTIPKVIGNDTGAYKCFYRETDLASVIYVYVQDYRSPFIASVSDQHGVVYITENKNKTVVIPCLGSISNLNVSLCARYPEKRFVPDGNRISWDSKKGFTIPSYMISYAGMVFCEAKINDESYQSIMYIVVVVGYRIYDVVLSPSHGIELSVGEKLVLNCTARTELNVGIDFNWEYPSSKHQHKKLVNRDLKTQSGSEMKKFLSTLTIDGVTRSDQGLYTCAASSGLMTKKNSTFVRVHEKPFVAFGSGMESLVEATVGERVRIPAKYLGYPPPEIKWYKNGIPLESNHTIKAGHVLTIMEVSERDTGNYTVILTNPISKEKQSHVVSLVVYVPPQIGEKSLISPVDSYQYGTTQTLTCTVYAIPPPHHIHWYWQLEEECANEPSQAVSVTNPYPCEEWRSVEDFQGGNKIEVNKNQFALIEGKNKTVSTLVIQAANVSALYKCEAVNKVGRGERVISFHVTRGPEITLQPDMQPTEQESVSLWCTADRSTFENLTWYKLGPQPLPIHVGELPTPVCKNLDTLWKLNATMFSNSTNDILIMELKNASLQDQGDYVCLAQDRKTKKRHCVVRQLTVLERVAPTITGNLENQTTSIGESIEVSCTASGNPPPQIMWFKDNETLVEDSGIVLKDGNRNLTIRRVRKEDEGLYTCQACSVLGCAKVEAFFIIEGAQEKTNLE
Sequence of Isoform 121 of human VEGF-A (Peprotech) (human) (P15692 other isoform, or with tags, fused parts or gaps): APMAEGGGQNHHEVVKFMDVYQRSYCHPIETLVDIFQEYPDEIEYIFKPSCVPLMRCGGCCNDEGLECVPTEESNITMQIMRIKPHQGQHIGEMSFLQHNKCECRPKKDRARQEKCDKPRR

absorbance at 492 nm [3] [OD 492 nm] | absorbance at 492 nm [4] [OD 492 nm] | absorbance at 492 nm [5] [OD 492 nm] | absorbance at 492 nm [6] [OD 492 nm] | Substance | absorbance at 492 nm [1] [OD 492 nm] | absorbance at 492 nm [2] [OD 492 nm]
 |  |  |  | TheraCIM (anti EGF receptor humanized IgG1 antibody; CIMAB SA, Havana) | 0.097 | 0.112
1.27 | 1.48 | 1.04 | 0.76 | soluble human receptor KDR-Fc (Sigma) (from UniProt P35968 20-764) (Fc fusion) |  | 
